T1: GRHL1 DNA-binding domain (UniProt Q9NZI5 248-485)
T1 sequence: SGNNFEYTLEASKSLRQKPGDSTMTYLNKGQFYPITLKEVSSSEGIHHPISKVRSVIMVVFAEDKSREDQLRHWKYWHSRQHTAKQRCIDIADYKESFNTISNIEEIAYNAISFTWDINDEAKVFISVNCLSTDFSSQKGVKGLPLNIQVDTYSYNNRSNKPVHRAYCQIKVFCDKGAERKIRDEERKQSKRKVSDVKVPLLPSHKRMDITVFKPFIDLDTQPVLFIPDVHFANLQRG

B1: Novel_V3 (dsDNA)
DNA 1: AGGTTTTTCCATTTTGGGGC
DNA 2: GCCCCAAAATGGAAAAACCT
B2: Pos_Ctrl_V3 (dsDNA)
DNA 1: GGGCAAAACCGTTTTTGCGG
DNA 2: CCGCAAAAACGGTTTTGCCC
B3: Novel_V2 (dsDNA)
DNA 1: AGGTTTTTCCAGTTTGGGGC
DNA 2: GCCCCAAACTGGAAAAACCT
B4: Pos_Ctrl_V2 (dsDNA)
DNA 1: GGGCAAAACCGCTTTTGCGG
DNA 2: CCGCAAAAGCGGTTTTGCCC
B5: Pos_Ctrl (dsDNA)
DNA 1: GGGCAAAACCGGTTTTGCGG
DNA 2: CCGCAAAACCGGTTTTGCCC
B6: Novel_V1 (dsDNA)
DNA 1: AGGTTTTTCCAATTTGGGGC
DNA 2: GCCCCAAATTGGAAAAACCT
B7: Pos_Ctrl_V1 (dsDNA)
DNA 1: GGGCAAAACCGATTTTGCGG
DNA 2: CCGCAAAATCGGTTTTGCCC
B8: Neg_Ctrl (dsDNA)
DNA 1: GCAAAAAGGAGTCATTGGTG
DNA 2: CACCAATGACTCCTTTTTGC
B9: Novel (dsDNA)
DNA 1: AGGTTTTTCCACTTTGGGGC
DNA 2: GCCCCAAAGTGGAAAAACCT

molecular target: T1, GRHL1 DNA-binding domain; experiment: ITC; ITC: 20 mM HEPES-NaOH pH 7.2, 125 mM NaCl, 2 mM DTT; ~10 µM dsDNA in cell, GRHL1 165 or 200 µM (Methods: 156 or 200 µM) in syringe; triplicates; temperature not stated; conditions: protein: recombinant; tags: His6 tag removed by TEV; chain copies: 2; blunt

| Binder | binding result | Kd [nM] |
| --- | --- | --- |
| B1 | no binding | – |
| B2 | – | 4350 ± 5400 |
| B3 | – | 210 ± 60 |
| B4 | – | 1540 ± 300 |
| B5 | – | 110 ± 30 |
| B6 | no binding | – |
| B7 | – | 3400 ± 2200 |
| B8 | no binding | – |
| B9 | – | 180 ± 80 |

From PMC10696883, “Discovery of a non-canonical GRHL1 binding site using deep convolutional and recurrent neural networks”
